# Measured values as given in paper PMC5683673.
# B1: purified recombinant human dimeric DPP-4 protein (dipeptidyl peptidase-4), P27487 29-766 (enzyme)
# chain: NKGTDDATADSRKTYTLTDYLKNTYRLKLYSLRWISDHEYLYKQENNILVFNAEYGNSSVFLENSTFDEFGHSINDYSISPDGQFILLEYNYVKQWRHSYTASYDIYDLNKRQLITEERIPNNTQWVTWSPVGHKLAYVWNNDIYVKIEPNLPSYRITWTGKEDIIYNGITDWVYEEEVFSAYSALWWSPNGTFLAYAQFNDTEVPLIEYSFYSDESLQYPKTVRVPYPKAGAVNPTVKFFVVNTDSLSSVTNATSIQITAPASMLIGDHYLCDVTWATQERISLQWLRRIQNYSVMDICDYDESSGRWNCLVARQHIEMSTTGWVGRFRPSEPHFTLDGNSFYKIISNEEGYRHICYFQIDKKDCTFITKGTWEVIGIEALTSDYLYYISNEYKGMPGGRNLYKIQLSDYTKVTCLSCELNPERCQYYSVSFSKEAKYYQLRCSGPGLPLYTLHSSVNDKGLRVLEDNSALDKMLQNVQMPSKKLDFIILNETKFWYQMILPPHFDKSKKYPLLLDVYAGPCSQKADTVFRLNWATYLASTENIIVASFDGRGSGYQGDKIMHAINRRLGTFEVEDQIEAARQFSKMGFVDNKRIAIWGWSYGGYVTSMVLGSGSGVFKCGIAVAPVSRWEYYDSVYTERYMGLPTPEDNLDHYRNSTVMSRAENFKQVEYLLIHGTADDNVHFQQSAQISKALVDVGVDFQAMWYTDEDHGIASSTAHQHIYTHMSHFIKQCFSLP
# Target: purified recombinant human dimeric DPP-4 protein (dipeptidyl peptidase-4) (human), P27487
# Assay: SEC
# Settings: remark: other sources report otherwise
binder,measurement,value
B1,percent present as dimer,85%
